For one test, the system named is hippocampal neurons. Nature of the test: Neurite outgrowth from hippocampal neurons. In kind it is cell-based, rat. The following applies: for neurite outgrowth in dose-response study: neurite length versus concentration. How it is done: Dissociated neurons from embryonic rat hippocampus (embryonic day 19), prepared as described (Skladchikova et al., 1999), were grown on Permanox plastic (Nunc) for 24 h at a density of 6000 cells/cm^2, at 37° C., 5% CO2 in Neurobasal medium containing 20 mM Hepes, 100 U/ml penicillin, 100 μg/ml streptomycin, 0.4% BSA supplemented with B27 (Gibco BRL) and the below specified compounds. After 24 h, cells were fixed with paraformaldehyde, stained with Coomassie Brilliant Blue R250 and the length of neurites was measured as described (Skladchikova et al, 1999).

In test [1] the target is interaction between the NCAM F3 modules 1, 2 and the FGFR modules 2, 3 (Rattus norvegicus, UniProt P13596). Nature of the test: biochemical.
A further test has as its target T1, FGFR1 Ig modules 2, 3 (Mus musculus, UniProt P16092).
T1 construct: amino acids 249-365 and 141-365 of FGFR (swissprot p16092), respectively; made in house; host or cells: Drosophila S2 cells
T1 sequence (P16092 141-365): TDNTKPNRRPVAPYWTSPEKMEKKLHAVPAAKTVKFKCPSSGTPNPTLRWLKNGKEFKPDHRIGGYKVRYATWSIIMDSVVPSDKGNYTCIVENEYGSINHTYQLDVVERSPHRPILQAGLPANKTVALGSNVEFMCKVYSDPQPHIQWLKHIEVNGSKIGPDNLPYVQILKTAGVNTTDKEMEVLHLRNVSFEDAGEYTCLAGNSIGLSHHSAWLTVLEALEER
Nature of the test: SPR binding to immobilized FGFR Ig modules 2, 3. The text has this:
The NCAM F3 modules 1, 2 (without expression of exons a, AAG), and FGFR1 Ig modules 2, 3 were produced using rat NCAM cDNA and mouse FGFR1 (IIIC iso-form) cDNA. The F3 module 1 and the combined F3 modules 1, 2 consist of […] (SEQ ID NO:173) and amino acids 507-611 and 507-705 of NCAM (swissprot p13596), respectively. […] The FGFR Ig module 2 consists of […] […] The FGFR Ig module 3 and the combined Ig modules 2, 3 consist of […] (SEQ ID NO:174) and amino acids 249-365 and 141-365 of FGFR (swissprot p16092), respectively. […] All the proteins were purified by affinity chromatography using Ni2^+−NTA resin (Qiagen, USA) and/or ion exchange chromatography and gel filtration. ^15N-labelled F3 module 2 was produced as described (Thomsen et al., 1996). The NCAM Ig modules 1, 2 and 3 (RV and amino acids 20-308 of rat NCAM, swissprot p13596) was produced as described (Soroka et al., 2002).
The flow-rate was 5 μl/min. […] The FGFR Ig modules 2, 3 were immobilized on a sensor chip CM5 using amine coupling kit (Biosensor AB) as follows: 1) the two halves of the chip (designated Fc1 and Fc2) were activated by 20 μl activation solution; 2) the protein was immobilized on Fc1 using 12 μl 20 μg/ml protein in 10 mM sodium phosphate buffer pH 6.0; 3) Fc1 and Fc2 were blocked by 35 μl blocking solution. […] The resulting curve was used for analysis.
A general note: In SPR one partner is held on a chip, and binding of the other changes the refractive index at the surface.

In the next test the target is T2, rat FGFR1 (IIIC isoform) (Rattus norvegicus, UniProt Q04589).
T2 construct: expressed in transfected cells; host or cells: HEK293 cells, transient, pcDNA3.1(+)
Nature of the test: FGFR1 phosphorylation, Assay 2 (HEK293 cells, His-tagged FGFR1). To be noted: 20 min, 5 μM F3 module 2, 25 μM monomeric FG loop peptide. In kind it is cell-based. As to the method:
Assay 2: The cDNA for the rat FGFR1 (IIIC isoform) was cloned by RT-PCR using RNA isolated from the rat PC12 cell line and inserted into a pcDNA3.1(+) plasmid (invitrogen), which allows expression of FGFR1 fused to the N-terminal of hexahistidine. ˜8×10^5 HEK293 cells were cultured for 24 h in 60 mm plates in full medium (DMEM 1965 supplemented with 10% FCS, 100 U/ml penicillin, 100 μg/ml streptomycin and […] Glutamax) and then transfected with 0.2 μg plasmid (with FGFR) using the LipofectAMIN PLUS™ reagent kit according to the manufacturer's instructions (Gibco BRL). Cells were grown for another 24 hrs in full medium, and then shifted to starvation media (DMEM 1965) overnight. FGFR transfected cells were stimulated for 20 min with the specified compounds, lysed in 8M urea, 1 mM orthovanadate (in PBS) and purified from the lysate via the His-tag as follows: The lysate was loaded on Ni^2+/NTA-sepharose (Qiagen), washed with lysis buffer plus 10 mM imidazole, and the FGFR was eluted with lysis buffer plus 250 mM imidazole. The purified FGFR was analysed by immunoblotting using anti-pentahis (Qiagen) or anti-phosphotyrosine (PY20, Transduction Laboratories) antibodies. The bands were visualised by chemilumiscense and the band density was measured using a GeneGnome apparatus (SynGene).

Test [2] relates to polyclonal antibody raised against the intact FGL-peptide. Nature of the test: Competitive ELISA of immunoreactivity with antibody raised against FGL-peptide. The following applies: rabbit serum. In kind it is binding. The text has this: Antibody specifically recognising an epitope comprising SEQ ID NO: 1 (FGL-peptide) were raised in rabbits according the standard procedure (Gill B M, Barbosa J A, Dinh T Q, Garrod S, O'Connor D T: Chromogranin B: isolation from pheochromocytoma, N-terminal sequence, tissue distribution and secretory vesicle processing. Regul Peptides 33:223-35, 1991). Synthetic FGL-peptide was coupled to a carrier protein, KLH (Keyhole Limpets Hemocyanin). The peptide was mixed with Freunds incomplete adjuvant and the mixture was injected into rabbits. 208 μg peptide was used per immunisation (per rabbit).
Antibodies (serum) were tested for specificity by competitive ELISA using a series FGL-peptide truncated variants according to the protocol described in R. J. Jenny, T. L. Messier, L. A. Ouellette, and W. R. Church, Methods Enzymol. 222, 400 (1993). 100% immunoreactivity was ob-served only with the intact FGL-peptide consisting of SEQ ID NO: 1.
(In general: An ELISA detects its analyte on a solid surface through an enzyme-linked reagent.)

Another test concerns the target T3, human FGFR1 (Homo sapiens, UniProt P11362).
T3 construct: expressed in transfected cells; host or cells: TREX-293 cells (Invitrogen), Flp-In system
Nature of the test: FGFR1 phosphorylation, Assay 1 (TREX-293 cells, StrepII-tagged FGFR1). In kind it is cell-based. To be noted: 20 min, 5 μM F3 module, 2.5 μM dendrimeric FG loop peptide. How it is done:
Assay 1: TREX-293 cells (Invitrogen) were stably transfected with human FGFR1 having a C-terminal StrepII-tag (IBA biotech), using the Flp-In system (Invitrogen). For the study of phosphorylation: ˜2×10^7 cells were starved overnight before stimulation for 20 min with the specified compounds. Cells were lysed in PBS with 1% NP-40 and phosphatase inhibitors cocktail set II (Calbiochem). The cleared cell lysates were incubated with 50 μl agarose-coupled anti-phosphotyrosine antibodies (4G10-AC, Upstate Biotechnologies) for 3 hrs at 4° C. Care was taken to calibrate the amount of cells employed, so that considerable increases in phosphorylated FGFR could be detected. The bound protein was washed, eluted using 150 mM phenyl phosphate (Sigma), precipitated by 12% trichloroacetic acid, washed in cold acetone and dissolved in SDS-PAGE sample buffer. Immunoblotting was performed using antibodies against the recombinant StrepII-tag (IBA biotech). For immunoprecipitation: ˜1×10^7 cells were transiently transfected with the 180 kDa NCAM isoform or a control vector. Cells were incubated for 24 h and then starved overnight. After lysis, FGFR was purified on a StrepTactin Minicolumn (IBA Biotech) according to the manufacturer's instructions, and analyzed by immunoblotting with polyclonal antibodies against human NCAM.

The next test has as its target T4, FGFR Ig module 2 (Mus musculus, UniProt P16092).
T4 sequence (P16092 140-251): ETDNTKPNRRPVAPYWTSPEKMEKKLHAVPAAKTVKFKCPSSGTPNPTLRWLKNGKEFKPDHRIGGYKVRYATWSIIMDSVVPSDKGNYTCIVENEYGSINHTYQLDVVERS
Nature of the test: 15N-HSQC NMR chemical shift changes of NCAM F3 module 2 with FGFR Ig module 2. In kind it is binding. To be noted: 50 μM 15N-labeled F3 module 2, 1 mM FGFR Ig module 2. The text has this:
The NCAM F3 modules 1, 2 (without expression of exons a, AAG), and FGFR1 Ig modules 2, 3 were produced using rat NCAM cDNA and mouse FGFR1 (IIIC iso-form) cDNA. The F3 module 1 and the combined F3 modules 1, 2 consist of […] (SEQ ID NO:173) and amino acids 507-611 and 507-705 of NCAM (swissprot p13596), respectively. […] The FGFR Ig module 2 consists of […] […] The FGFR Ig module 3 and the combined Ig modules 2, 3 consist of […] (SEQ ID NO:174) and amino acids 249-365 and 141-365 of FGFR (swissprot p16092), respectively. […]
The following samples were used for the structure determination of the NCAM F3 module 2: 2 mM module in H2O or D2O and 1 mM ^15N-labelled module in H2O. […] The following NMR spectra were recorded and used for assignment: TOCSY in H2O or D2O (45 and 70 ms mixing time), NOESY in H2O or D2O (80 and 200 ms mixing time), DQFCOSY, ^15N-HSQC, ^15N-TOCSY-HSQC (70 ms mixing time), and ^15N-NOESY-HSQC (125 ms mixing time) (Bodenhausen and Ruben, 1980; Braunsweiler and Ernst, 1983; Kumar et al., 1981; Piantini et al., 1982; Zhang et al., 1994). […] All spectra were recorded at 298 K. The assignment of the ^1H and ^15N resonances were performed using the program PRONTO (Kjaer et al., 1994). […]

The Ki is a measure of affinity in units of concentration, obtained from inhibition or displacement.

T2 sequence (Q04589 22-822): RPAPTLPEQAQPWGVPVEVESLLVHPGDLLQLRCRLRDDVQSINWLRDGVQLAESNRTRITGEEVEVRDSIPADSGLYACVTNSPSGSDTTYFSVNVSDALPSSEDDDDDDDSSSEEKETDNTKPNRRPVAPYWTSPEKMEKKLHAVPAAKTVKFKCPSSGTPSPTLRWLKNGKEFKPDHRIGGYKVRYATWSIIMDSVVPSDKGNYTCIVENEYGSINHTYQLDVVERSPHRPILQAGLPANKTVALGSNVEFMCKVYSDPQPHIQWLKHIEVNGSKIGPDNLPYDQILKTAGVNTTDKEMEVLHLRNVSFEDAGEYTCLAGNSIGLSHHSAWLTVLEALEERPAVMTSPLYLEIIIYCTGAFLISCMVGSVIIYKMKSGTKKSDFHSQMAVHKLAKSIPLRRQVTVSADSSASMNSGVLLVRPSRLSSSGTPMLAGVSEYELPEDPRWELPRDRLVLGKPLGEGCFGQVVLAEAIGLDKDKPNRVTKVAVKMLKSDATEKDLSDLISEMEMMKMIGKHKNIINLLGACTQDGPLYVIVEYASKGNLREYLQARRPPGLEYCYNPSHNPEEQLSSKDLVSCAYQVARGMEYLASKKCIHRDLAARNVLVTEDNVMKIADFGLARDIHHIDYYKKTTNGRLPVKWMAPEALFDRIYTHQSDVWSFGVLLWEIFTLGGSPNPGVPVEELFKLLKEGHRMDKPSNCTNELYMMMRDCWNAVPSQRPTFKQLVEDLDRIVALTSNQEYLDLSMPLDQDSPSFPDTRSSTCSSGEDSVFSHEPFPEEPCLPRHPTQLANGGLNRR
Sequence of interaction between the NCAM F3 modules 1, 2 and the FGFR modules 2, 3 (P13596 507-705): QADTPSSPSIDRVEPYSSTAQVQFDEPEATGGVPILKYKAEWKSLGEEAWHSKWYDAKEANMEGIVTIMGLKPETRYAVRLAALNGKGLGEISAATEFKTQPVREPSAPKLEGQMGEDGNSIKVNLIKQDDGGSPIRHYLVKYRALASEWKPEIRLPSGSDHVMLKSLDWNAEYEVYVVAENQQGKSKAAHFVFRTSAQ
T3 sequence (P11362 22-822): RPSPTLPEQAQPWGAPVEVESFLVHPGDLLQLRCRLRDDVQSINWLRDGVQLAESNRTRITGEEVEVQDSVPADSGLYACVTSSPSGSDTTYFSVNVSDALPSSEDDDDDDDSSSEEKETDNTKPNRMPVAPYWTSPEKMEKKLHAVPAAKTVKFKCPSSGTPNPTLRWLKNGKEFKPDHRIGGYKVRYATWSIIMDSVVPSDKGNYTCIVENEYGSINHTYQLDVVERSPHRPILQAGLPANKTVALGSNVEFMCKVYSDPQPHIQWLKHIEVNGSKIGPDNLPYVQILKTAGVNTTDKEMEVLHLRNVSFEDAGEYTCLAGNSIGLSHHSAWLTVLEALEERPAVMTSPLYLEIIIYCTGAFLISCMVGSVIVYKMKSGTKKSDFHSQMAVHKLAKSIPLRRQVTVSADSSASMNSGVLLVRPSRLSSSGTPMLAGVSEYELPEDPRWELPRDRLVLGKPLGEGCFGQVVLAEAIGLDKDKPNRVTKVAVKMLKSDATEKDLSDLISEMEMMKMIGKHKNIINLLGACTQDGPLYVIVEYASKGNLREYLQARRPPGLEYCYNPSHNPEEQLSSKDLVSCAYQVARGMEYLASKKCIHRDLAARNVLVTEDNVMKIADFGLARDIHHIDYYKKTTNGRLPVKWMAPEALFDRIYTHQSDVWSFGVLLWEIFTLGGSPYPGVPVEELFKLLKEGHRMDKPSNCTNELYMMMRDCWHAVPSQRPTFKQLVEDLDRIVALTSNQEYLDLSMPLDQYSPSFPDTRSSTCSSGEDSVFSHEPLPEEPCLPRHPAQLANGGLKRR

As to `Nc1ncnc2c1ncn2[C@@H]1O[C@H](COP(=O)(O)OP(=O)(O)OP(=O)(O)O)[C@@H](O)[C@H]1O` [ATP, adenosine triphosphate, reference compound], the “inhibition of the neuritogenic effect induced by the F3 module 2” value in the test with hippocampal neurons (5 μM F3 module, ATP or AMP-PCP 0.4, 1.0 mM) was “substantially reduced”. Also, in the test on hippocampal neurons (50 μM peptide, ATP or AMP-PCP 0.4, 1.0 mM), the “inhibition of the neuritogenic effect induced by the FG loop peptide” value was “completely inhibited”. In addition, the Ki in test [1] stood at 370 ± 50 µM.
For the molecule “FG loop peptide: peptide corresponding to residues E^72-A^86 of the NCAM F3 module 2 (EVYVVAENQQGKSKA; NCAM Fn III, 2 [Swiss-Prot P13591] FGFR binding motif)”, the “binding to the immobilized FGFR modules” value with FGFR1 Ig modules 2, 3 is reported as “cannot be detected”. The “neurite outgrowth in dose-response study” value with hippocampal neurons (hippocampal neurons) is “induced neurite outgrowth with a bell-shaped curve”. In the test with rat FGFR1 (IIIC isoform), the “increase of FGFR phosphorylation compared to control cells” value is approximately 100%. In test [2], this molecule registered an immunoreactivity of 100%.

B1: NCAM F3 module 2: recombinant protein: AG and amino acids 612-705 of rat NCAM (swissprot p13596) (protein)
chain: AGPSAPKLEGQMGEDGNSIKVNLIKQDDGGSPIRHYLVKYRALASEWKPEIRLPSGSDHVMLKSLDWNAEYEVYVVAENQQGKSKAAHFVFRTSAQ
For the molecule B1, the “stimulation of neurite outgrowth / length of neurites” value with hippocampal neurons (hippocampal neurons, 24 h, 5 μM F3 module 2) is given as “substantially increased”. Besides, the “neurite outgrowth in dose-response study” value in the test on hippocampal neurons (hippocampal neurons) was “induced neurite outgrowth with a bell-shaped curve”. The “FGFR phosphorylation compared to the non-stimulated cells” value with human FGFR1 is recorded as “substantially increase”. Also, the “increase of FGFR phosphorylation compared to control cells” value with rat FGFR1 (IIIC isoform) was “approx. 150%”. In addition, the “changes of the chemical shifts in the presence of the Ig module 2” value with FGFR Ig module 2 is on record as “No significant changes”.

For the origin of these results see patent publication US7951906B2, “Compounds capable of interacting with a cell-surface fibroblast growth factor receptor” (Enkam Pharmaceuticals A/S, priority 2002, dated 2011).
